B1: STK38L (parent)
chain: FCIDSENRIGNSGVEEIKGHPFFE

Variants of: B1
Assay: protein stability index of a GFP-peptide fusion (GPS, HEK-293T) (PSI 1-6); higher = more stable
Conditions: c terminus: a fixed tail appended
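Also: lentivirally expressed fusions sorted by FACS into six bins by GFP to DsRed ratio, PSI derived from sequencing read proportions per bin multiplied by bin number.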

Protein stability index: each site, then its substitutions
G19: D 3.21; C 1.68; M 1.67; S 2.43; K 2.16; L 1.87; T 2.19; W 2.27; P 1.99; N 2.68; E 3.45; I 1.54; F 1.8; R 1.63; Y 1.99; A 2.15; V 2.09; H 2.13; Q 2.37
N7: G 2.26; Q 1.51; C 1.06; I 1.58; Y 1.8; H 1.91; E 2.87; D 2.43; R 1.56; M 2.71; L 2.24; A 2.93; W 4.28; P 2.21; V 1.22; S 2.09; K 2.25; T 2.17
S5: E 3.39; L 1.06; G 2.53; Q 2.49; V 1.9; A 1.95; T 2.25; D 2.61; M 2.12; F 2.3; R 2.21; P 1.47; H 2.5; I 2.44; Y 1.88; C 2; N 2.4; K 1.9
G10: A 2.27; R 2.98; L 1.96; N 3.64; E 2.54; M 2.11; S 2.39; V 1.54; D 2.75; Y 1.79; K 2.53; H 2.71; Q 3.48; P 2.31; W 1.1; C 2.32; F 1.57; I 1.87; T 2.38
R8: Y 2.15; A 2.67; T 3.15; N 2.94; M 2.67; S 2.55; E 3.56; K 2.37; I 2.79; D 3.9; C 2.17; G 2.8; L 2.34; H 2.72; V 2.02; F 2.45; P 2.71; W 2.87; Q 2.83
E6: I 2.23; G 1.98; C 1.77; S 2.86; N 1.59; R 2; T 1.74; W 1.35; H 2.16; D 1.91; K 2.12; Q 1.73; Y 1.71; F 1.46; A 1.37; L 2.21; P 1.48; V 1.8; M 2.89
C2: S 3.61; T 3.25; V 2.03; R 3; N 2.93; M 3.58; L 2.94; Q 2.33; W 2.62; Y 2.61; P 2.39
N11: Y 2.12; K 2.03; W 1.57; C 2.3; G 2.35; E 3.11; Q 2.73; L 1.65; P 2.12; H 2.38; R 2.31; M 1.83; D 2.73; T 1.81; F 1.88; S 1.99; A 2.11; V 2
H20: M 2.71; F 2.62; I 2.95; P 3.45; C 1.54; N 2.67; G 3.09; L 2.69; A 3.79; D 2.53; K 3.41; E 4.12
E15: I 1.46; F 1.73; T 2.08; Q 1.57; P 1.98; H 2; A 1.99; S 1.96; D 1.62; C 2.68; K 2.22; M 2.51; V 2.52; N 1.64; L 1.9; G 2.08; Y 1.92; R 2.08
S12: Q 2.2; A 1.98; G 1.91; P 2.32; H 2.56; K 2.78; R 2.35; T 2.52; L 1.9; M 1.72; V 2; N 2.55; F 1.84; D 2.32; Y 1.99; I 2.35; W 1.5; E 2.52
I9: T 3.21; N 2.2; W 1.58; L 1.99; Q 2.65; V 2.73; F 1.9; P 3.17; H 2.9; Y 2.58; M 2.03; R 2.71; E 3.42; S 2.82; C 2.38; G 2.58; K 2.19
G13: D 2.55; T 2.75; I 2.47; R 2.26; K 2.44; P 2.68; F 2.95; H 2.56; L 2.22; N 2.73; Y 2.28; C 2.1; V 1.97; M 2.12; Q 2.44; W 2.87; A 2.07; E 3.12
V14: K 2.72; A 3.13; G 2.01; D 2.68; C 2.27; Y 2.96; L 1.54; N 2.8; P 2.46; F 1.6; E 2.96; H 2.06; W 1.96; T 2.29; M 2.47; Q 2.74; S 2.32; I 2.1; R 2.32
D4: V 2.22; Q 2.78; A 2.09; F 1.46; E 2.91; R 1.7; M 2.86; I 2.24; N 1.89; T 2.44; H 2.8; Y 2.07; W 1.84; L 1.25; G 2; K 2.83; P 3.47; S 1.3
K18: P 3.07; I 2.31; Q 2.2; E 3.07; V 2.63; F 2.12; A 2.48; L 2.89; S 3; N 2.8; Y 2.16; W 2.47; C 2.82; T 2.6; M 1.65; D 4.12; H 2.34; G 2.36
I3: S 2.3; V 3.26; D 4.02; K 2.5; M 2.9; Q 3.06; R 2.49; A 2.04; L 2.57; H 2.75; E 3.95; C 1.96; T 3.6; G 3.29; F 2.23; N 3.43; W 2.19; Y 2.16; P 1.85
I17: D 3.1; N 2.88; K 2.35; R 2.1; F 2.36; P 2.54; Q 2.53; L 2.61; E 3.47; M 2.79; Y 2.18; T 3.17; H 2.16; S 3.17; W 1.67; C 2.84; G 2.38
E16: I 1.55; Y 1.51; R 2.3; P 2.42; T 2.35; Q 2.54; G 2.67; A 3.21; K 1.98; D 1.89; W 1.44; V 1.87; N 2.06; S 1.85; L 1.79; C 2.23; M 2.28; H 2.22; F 2.25
